From PMC10997057

Key:
[1] = target: synthetic AL amyloid fibrils composed of the recombinant λ6 light chain variable domain from patient (human); assay: co-sedimentation; "pulldown" bioactivity assay; product labelled from lyophilized "kit" preparations stored at -80°C for 7, 98 and 128 days
[2] = target: ATTRv amyloid extract (patient heart), variant not named (human (endogenous in patient heart)) (UniProt P02766); assay: co-sedimentation; pulldown with tissue amyloid extracts suspended in PBS at 1 mg/mL, homogenized; as for WIL fibrils except that 1.0% bovine serum albumin was added
[3] = target: murine splenic AA amyloid extract (mouse (endogenous in spleen)) (UniProt P05367); assay: as above
[4] = target: ALλ amyloid extract (patient spleen) (human (endogenous in patient spleen)); assay: as above
[5] = target: ALκ amyloid extract (patient liver) (human (endogenous in patient liver)); assay: as above
[6] = target: synthetic AL amyloid fibrils composed of the recombinant λ6 light chain variable domain from patient (human); assay: co-sedimentation; "pulldown" bioactivity assay; batch product at 0 h post-synthesis; 25 ug fibrils in PBS with 0.05% tween 20, 20-40 ng radiolabeled product, 1 h at RT, centrifugation 10,000 x g 3 min, gamma counting of pellet and supernatant
[7] = target: synthetic AL amyloid fibrils composed of the recombinant λ6 light chain variable domain from patient (human); assay: co-sedimentation; pulldown as for WIL fibrils except that 1.0% bovine serum albumin was added; synthetic rVλ6WIL fibrils as substrate
[8] = target: synthetic AL amyloid fibrils composed of the recombinant λ6 light chain variable domain from patient (human); assay: co-sedimentation; "pulldown" bioactivity assay as a1; batch product 6 h post-synthesis (some loss of ^99mTcO4^-1 from the peptide)
[9] = target: synthetic AL amyloid fibrils composed of the recombinant λ6 light chain variable domain from patient (human); assay: co-sedimentation; "pulldown" bioactivity assay as a1; batch product stored 3 h at RT post-synthesis

Sequence of ^99mTc-labeled p5+14 peptide (peptide): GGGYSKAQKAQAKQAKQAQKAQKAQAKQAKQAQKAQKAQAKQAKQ
Sequence of murine splenic AA amyloid extract (mouse (endogenous in spleen)) (P05367 20-122): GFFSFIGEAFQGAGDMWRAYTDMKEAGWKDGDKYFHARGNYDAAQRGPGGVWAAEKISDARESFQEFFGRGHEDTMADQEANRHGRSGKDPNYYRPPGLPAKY

^99mTc-labeled p5+14 peptide
bioactivity (% bound), kit at day 7 [1]: 76.8%
bioactivity (% bound), kit at day 98 [1]: 75.1%
bioactivity (% bound), kit at day 128 [1]: 75.2%
bound (%) [2]: 79%
bound (%) [3]: 67.8%
bound (%) [4]: 88.1%
bound (%) [5]: 93.3%
Bioactivity (bound %), 0 h post-synthesis [6]: 94%
bound (%) [7]: 91.1%
Bioactivity (bound %), 6 h post-synthesis [8]: 72.2%
Bioactivity (bound %), 3 h post-synthesis [9]: 92.9%
